Source: US20130004493A1

Key:
[1] = target: Focal adhesion kinase (FAK), human (human) (UniProt Q05397); assay: co-immunoprecipitation, Western blot for FAK, ARPE-19 cells (figure legend)
[2] = target: Focal adhesion kinase (FAK), human (human) (UniProt Q05397); assay: co-immunoprecipitation with anti-EMP2 antibody, Western blot densitometry, ARPE-19 cells
[3] = target: Focal adhesion kinase (FAK), human (human) (UniProt Q05397); assay: co-immunoprecipitation, ratio of co-immunoprecipitate to cognate immunoprecipitate, ARPE-19 cells
[4] = target: Focal adhesion kinase (FAK), human (human) (UniProt Q05397); assay: cell-based or functional assay
[5] = target: Focal adhesion kinase (FAK), human (human) (UniProt Q05397); assay: co-immunoprecipitation with anti-EMP2 antibody, Western blot densitometry, ARPE-19/EMP2 cells
[6] = target: Focal adhesion kinase (FAK), human (human) (UniProt Q05397); assay: co-immunoprecipitation, ratio of co-immunoprecipitate to cognate immunoprecipitate, ARPE-19/EMP2 cells
[7] = target: Focal adhesion kinase (FAK), human (human) (UniProt Q05397); assay: immunoprecipitation from ARPE-19 and ARPE-19/EMP2 lysates, Western blot densitometry

Focal adhesion kinase (FAK), human (human), sequence (Q05397 2-1052): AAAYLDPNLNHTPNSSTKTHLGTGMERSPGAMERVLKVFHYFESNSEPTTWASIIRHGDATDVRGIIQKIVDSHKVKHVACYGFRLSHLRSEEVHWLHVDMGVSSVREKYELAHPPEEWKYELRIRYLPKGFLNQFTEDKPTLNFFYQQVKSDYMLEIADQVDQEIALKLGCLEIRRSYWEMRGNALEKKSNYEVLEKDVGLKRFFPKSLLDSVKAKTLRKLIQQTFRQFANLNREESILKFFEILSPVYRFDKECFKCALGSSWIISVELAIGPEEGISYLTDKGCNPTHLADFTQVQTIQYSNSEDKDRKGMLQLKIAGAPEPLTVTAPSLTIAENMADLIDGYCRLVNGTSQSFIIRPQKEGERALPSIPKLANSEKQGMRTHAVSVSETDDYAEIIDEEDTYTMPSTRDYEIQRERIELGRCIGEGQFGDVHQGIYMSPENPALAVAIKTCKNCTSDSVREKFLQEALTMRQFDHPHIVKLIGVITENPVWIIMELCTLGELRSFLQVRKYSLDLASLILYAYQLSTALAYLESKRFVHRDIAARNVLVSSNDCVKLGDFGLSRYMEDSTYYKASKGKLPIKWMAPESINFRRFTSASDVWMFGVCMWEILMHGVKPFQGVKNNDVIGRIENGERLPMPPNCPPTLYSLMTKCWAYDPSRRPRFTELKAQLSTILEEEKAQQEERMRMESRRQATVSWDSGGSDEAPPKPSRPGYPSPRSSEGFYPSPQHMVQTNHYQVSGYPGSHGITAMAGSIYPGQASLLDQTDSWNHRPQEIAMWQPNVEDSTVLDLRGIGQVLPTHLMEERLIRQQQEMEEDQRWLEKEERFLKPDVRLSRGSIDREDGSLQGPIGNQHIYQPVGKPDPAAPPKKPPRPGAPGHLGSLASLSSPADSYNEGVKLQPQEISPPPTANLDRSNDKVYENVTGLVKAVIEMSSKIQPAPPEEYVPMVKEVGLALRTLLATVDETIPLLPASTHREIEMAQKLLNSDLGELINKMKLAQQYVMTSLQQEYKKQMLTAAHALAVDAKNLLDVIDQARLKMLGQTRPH

Epithelial membrane protein 2 (EMP2), human (from UniProt P54851 1-167)
percent of total FAK co-immunoprecipitated by EMP2 [1]: 25%
level of FAK in the EMP2 immunoprecipitates [2]: 12%
percent of total FAK associated with EMP2 [3]: 24%
percent of FAK at the cell surface contacting the glass slide colocalized with EMP2 (confocal microscopy, ARPE-19/EMP2 cells) [4]: 96%
percent of FAK at the cell surface contacting the glass slide colocalized with EMP2 (confocal microscopy, ARPE-19 cells) [4]: 68%
level of FAK in the EMP2 immunoprecipitates [5]: 15%
percent of total FAK associated with EMP2 [6]: 30%

Anti-FAK polyclonal antibody (Santa Cruz Biotechnology, clone C-20)
cognate immunoprecipitation efficiency [7]: 50 to 60%
